Data reported in US11679121B2, “Morpholino oligonucleotides useful in cancer treatment” (United States Government As Represented By The Department …, priority 2018, dated 2023).
Entries after “also recorded” stand apart in the source; their conditions may differ.

Assays:
MGMT [1] = test: Western blot of MGMT expression in tumor cell lines after scrape-loading or transfection-agent delivery of AMONs; type: cell-based, human
Protocol: The ability of each of three AMONs (SEQ ID NO: 1, SEQ ID NO: 2, and SEQ ID NO: 3) to inhibit MGMT expression in tumor cell lines was assessed. Three MGMT expressing solid tumor cell lines (T98G Glioma, H460 and A549 non-small-cell-lung cancer cell lines) were transduced with AMONs using a scrape-loading technique (Partridge M et al, Antisense Nucleic Acid Drug Dev 6, 169-175 (1996); incorporated by reference herein). […] This was replicated in H460 and A549 NSCLC lines.
[…] transfection agents were also used to introduce the AMONs into the cells and produced similar results (FIG. 1B). MGMT silencing was not achieved when cells were exposed to AMONS without scrape-loading or liposomal transfection agents (controls).
Cells were maintained at 37° C. and in an atmosphere containing 5% CO2. Three MGMT antisense oligonucleotide sequences: SEQ ID NO: 1-5′-[…]-3′; SEQ ID NO: 2-5′-[…]-3′; SEQ ID NO: 3-5′-[…]-3′ and one non-specific control sequence: SEQ ID NO: 4-5′-[…]-3′ were synthesized and purchased from Gene Tools, LLC (Philomath, Oreg., USA). Mouse anti-tubulin antibody (T9026) was purchased from Sigma (St. Louis, Mo., USA). Anti-MGMT (#2739), caspase 3 (#9662) and phospho-p53 (Ser15) (#9284) antibodies were purchased from Cell Signaling (Danvers, Mass., USA). Mouse anti-dynamin II (sc-166526) monoclonal antibody was purchased from Santa Cruz Biotechnology (Santa Cruz, Calif., USA).
Delivery of MGMT-morpholino in vitro into the cancer cells: Scrape delivery: 10^6 cancer cells were seeded on a 10-cm culture plate. The culture plate was placed on a flat surface and the cells scraped off the surface with a sterile cell scraper. Different doses or combinations of MGMT-morpholinos were added to the cells. Scraped cell suspensions were pipetted up and down twice and transferred to another culture plate.
Transfection agent delivery: 10^6 cancer cells were seeded in 10-cm culture plate. Cells were treated with transfection agent DharmaFECT (GE Dharmacon; Lafayette, Colo., USA) and MGMT-morpholinos mixture (1:1; v/v).
(§1) Cell viability assay and western blot analyses: Cell viability and proliferation was measured using the WST-1 Proliferation Assay Kit from Chemicon International Inc. (Temecula, Calif.). Cells or tissues were harvested and then washed with ice-cold PBS twice before the addition of RIPA lysis buffer containing protease and phosphatase inhibitors. Protein concentration was quantified using the Bio-Rad method. Equal amounts of protein were loaded into each well and separated by 7.5 or 12% SDS-PAGE gel followed by transfer onto polyvinylidene difluoride membranes (BioRad, Richmond, Calif.). Membranes were blocked using 5% nonfat dry milk or 2% bovine serum albumin (BSA) in PBS-T. The blots were then incubated with primary antibodies (1:200-1:1,000) overnight at 4° C. Secondary antibody (1:5,000; Cell signaling technology, Danvers, Mass.) was incubated for 2 h at room temperature. Immunoblots were developed using the chemiluminescence detection system (Thermo Scientific, Waltham, Mass.) according to the manufacturer's protocol and autoradiography. Quantification of immunoblotting signal of respective proteins was performed using UN-SCAN-IT Gel software (Silk Scientific, Inc., Orem, Utah).

MGMT [2] = test: Western blot of MGMT expression after ionizing-radiation-enhanced delivery of AMONs, without scrape-loading or transfection agents; type: cell-based, human
Protocol: The ability of ionizing radiation to enhance the cytosolic delivery of AMONs in T98G glioma cell lines and suppress MGMT expression was assessed. T98 G cells were exposed to AMON SEQ ID NO: 2 alone, SEQ ID NO: 3 alone, or the combination of SEQ ID NO: 1, SEQ ID NO: 2 and SEQ ID NO: 3, one hour after exposure to 1 Gy of ionizing radiation. […] As with the use of scrape loading and lysosomal transfection agents, the inhibition of expression with radiation enhanced delivery of AMONS was transient, with peak inhibition at 3 days and restoration of MGMT expression by 7 days. Based on these findings a combination of sequences 1, 2 and 3 were used for further experiments.
To determine the optimal timing for exposure to AMON with respect to exposure to radiation, T98G cell lines were exposed to AMONs 2 hours and 1 hour before radiation as well as 1 and 24 hours after radiation exposure (FIG. 2B). The best inhibition was observed when cells were exposed to AMON 24 hours after radiation. This time line was adopted for further experiments. Different tumor cell lines required different doses of radiation to enhance delivery of AMON. Knockdown could be achieved in T98G cell lines at 1 Gy while H460 and A549 cell lines required exposure to 6-12 Gy for best results with no inhibition at lower doses of ionizing radiation (FIG. 2C).
Radiation delivery: cell culture: 10^6 cancer cells were exposed to different doses of radiation (0.5-12 Gy) at room temperature using a Philips gamma chamber (Philips Medical Systems, Andover, Mass.). After irradiation, cells were treated with mixtures of MGMT-morpholinos (SEQ ID NO: 1, SEQ ID NO: 2, SEQ ID NO: 3=1:1:1; v/v/v) at different time points and at a final concentration of 15 μM.
as §1

T98G cells = test: Temozolamide cytotoxicity after radiation and AMONs (Western blot of phosphorylated-p53 and caspase 3); type: cell-based, human; settings: for Susceptibility of cells to temozolamide (phosphorylated-p53, caspase 3): T98G, AMONs 1 day after 1 Gy, 75 or 150 μg/ml temozolamide two days later, lysates 1 and 4 days, FIG. 3
Protocol: FIG. 3 is a flow chart of an experimental model that includes treatment of cells with radiation, morpholino oligonucleotides of SEQ ID NO: 1, SEQ ID NO: 2, and SEQ ID NO: 3, and 75 or 150 μg/ml temozolamide as indicated.
MGMT expressing glioma cell lines such as T98G are known to be resistant to the cytotoxic effects of temozolomide (Yoshino A et al, Int J Oncol 36, 1367-1377 (2010); incorporated by reference herein). AMONs were administered 1 day after exposure of the T98G cells to 1 Gy of radiation and 75 or 150 μg/ml temozolamide administered two days after administration of the AMONs. Whole cell lysates were then collected 1 and 4 days after exposure to the temozolamide and a Western blot using antibodies specific for the indicated proteins performed.
as §1

T98G = settings: Yoshino A et al 2010; cited from earlier work
MGMT [3] = test: Subcutaneous H460 xenograft tumors in athymic nude rats: local radiation plus iv AMON, Western blot of MGMT in tumor lysates; type: in vivo, human
Protocol: Due to the inconsistent growth of intracranial T98G cell lines, subcutaneous H460 NSCCL tumors in athymic nude rats were studied. 2.5×10^7 H460 cells were subcutaneously injected in each of their hind limbs of 6 animals. When the tumor reached 10 mm in diameter, a single dose of 5 Gy of ionizing radiation was delivered to the tumor field. AMON was administered intravenously (iv) through the femoral vein 24 hours after radiation. Tumors were harvested 3 days after exposure to AMONs.
Delivery of MGMT-morpholino in vivo: Female (200-250 g) nude (mu/rnu) and heterozygous (rnu/wt) rats were selected from the breeding colony maintained in the animal facility. For subcutaneous tumor model, a total of 2.5×10^7 cells were mixed (ratio 1:1; v/v) with Matrigel Basement Membrane Matrix (BD Biosciences, Bedford, Mass.), and the mixture was injected subcutaneously into both left and right hind legs. At d 7 after inoculation, right SQ tumor was exposed to single dose of radiation (5 Gy) with shielding the rest of body using a Philips gamma chamber (Philips Medical Systems, Andover, Mass.), and left SQ tumor of the same animal without radiation was served as control. A total of 30 mM MGMT-morpholinos SEQ ID NO: 1, SEQ ID NO: 2, SEQ ID NO: 3=1:1:1; v/v/v) was administered intravenously 24 h after irradiation. Tissues (SQ tumors, brain, liver, spleen and kidney) were harvested 3 days after morpholinos and subjected to further protein and DNA analysis.
Cell viability assay and western blot analyses: Cell viability and proliferation was measured using the WST-1 Proliferation Assay Kit from Chemicon International Inc. (Temecula, Calif.). Cells or tissues were harvested and then washed with ice-cold PBS twice before the addition of RIPA lysis buffer containing protease and phosphatase inhibitors. Protein concentration was quantified using the Bio-Rad method. […] Quantification of immunoblotting signal of respective proteins was performed using UN-SCAN-IT Gel software (Silk Scientific, Inc., Orem, Utah).

MGMT gene = test: MGMT-gene methylation status of subcutaneous tumors by pyrosequencing; type: in vivo, human; settings: after implantation, radiation or AMONs
Protocol: Measurement of MGMT DNA methylation status: Subcutaneous xenograft tumor DNA was isolated using DNeasy Blood & Tissue Kit from Qiagen International (Germantown, Md., USA). In order to assure the quality and purity of DNA samples, the ratio of A260/A280 was determined and recorded samples was above 1.9. The percentage methylation status of MGMT DNA at CpG islands in samples were measured at using pyrosequening.

[4] = T98G cells, scrape-loading and liposomal transfection agents
[5] = T98G cells, scrape-loading, FIG. 1A
[6] = T98G cells, AMON one hour after 1 Gy ionizing radiation, lysates 3 and 7 days, FIG. 2A

5′-ATTCCTTCACGGCCAGTCCTT-3′ (morpholino, chemistry not fully specified) [SEQ ID NO: 3]
Inhibition of MGMT expression (Western blot) (MGMT [1]; T98G cells, scrape delivery or lipofectamine/liposomal transfection, lysates 3 and 7 days after treatment, FIG. 1C): transient; also recorded: inhibition of MGMT | Time of best inhibition of MGMT expression (MGMT [1]; [4]): 3 days | Time of restoration of MGMT expression (MGMT [1]; [4]): ≤ 7 days | Inhibition of MGMT expression (Western blot) (MGMT [1]; [5]): most effective in silencing MGMT expression; also recorded: inhibition of MGMT expression | Inhibition of MGMT expression (Western blot) (MGMT [2]; [6]): inhibition of MGMT

5′-TTCCATAACACCTGTCTGGTT-3′ (morpholino, chemistry not fully specified) [SEQ ID NO: 2]
Inhibition of MGMT expression (Western blot) (MGMT [1]; [5]): most effective in silencing MGMT expression; also recorded: inhibition of MGMT expression

5′-TTTCGTGCAGACCCTGCTCTT-3′ (all phosphorodiamidate morpholino (PMO)) [SEQ ID NO: 1]
Inhibition of MGMT expression (Western blot) (MGMT [1]; [5]): inhibition of MGMT expression

Cn1nnc2c(C(N)=O)ncn2c1=O [temozolomide, reference compound]
Dose dependence of enhanced cytotoxic effects (T98G cells; T98G after 1 Gy and AMONs, 75 and 150 μg/mL): dose dependent | Cytotoxic effects on MGMT expressing glioma cell lines (T98G): resistant

SEQ ID NO: 2 and SEQ ID NO: 3: combination of morpholino oligonucleotides of SEQ ID NO: 2 and SEQ ID NO: 3 (chain 1 TTCCATAACACCTGTCTGGTT; chain 2 ATTCCTTCACGGCCAGTCCTT; morpholino, chemistry not fully specified)
Inhibition of MGMT expression (Western blot) (MGMT [2]; [6]): inhibition of MGMT

B1: combination of SEQ ID NO: 1, SEQ ID NO: 2 and SEQ ID NO: 3: mixture of MGMT-morpholinos SEQ ID NO: 1, SEQ ID NO: 2, SEQ ID NO: 3 = 1:1:1 v/v/v; used for experiments after b163 (nucleic acid)
chain 1: TTTCGTGCAGACCCTGCTCTT
chain 2: TTCCATAACACCTGTCTGGTT
chain 3: ATTCCTTCACGGCCAGTCCTT
modifications: morpholino mixture, chemistry not fully specified
notes: used for experiments after b163
Inhibition of MGMT expression (Western blot) (MGMT [1]; H460 NSCLC cells, transfection agents, 6 μM and 15 μM, FIG. 1B): inhibition of MGMT expression | Inhibition of MGMT expression (Western blot) (MGMT [1]; [5]): most effective in silencing MGMT expression | Inhibition of MGMT expression (Western blot) (MGMT [1]; T98G cells, scrape-loading, FIG. 1A, SEQ ID NO: 2, and SEQ ID NO: 3): inhibition of MGMT expression | Radiation dose required for best results (knockdown) (MGMT [2]; H460 and A549 cell lines): 6-12 Gy | Inhibition of MGMT expression at lower doses of ionizing radiation (MGMT [2]; H460 and A549 cell lines, doses below 6-12 Gy): no inhibition | Radiation dose at which knockdown could be achieved (MGMT [2]; T98G cell lines): 1 Gy | Inhibition of MGMT expression (Western blot) (MGMT [2]; T98G cells, 24 hours after exposure to the dose of radiation indicated, FIG. 2C): inhibition of MGMT | Inhibition of MGMT expression (Western blot) (MGMT [2]; T98G cells, AMON one hour after 1 Gy ionizing radiation, lysates 3 and 7 days, FIG. 2A, SEQ ID NO: 2, and SEQ ID NO: 3): inhibition of MGMT | Inhibition of MGMT expression (Western blot) (MGMT [2]; T98G cells, AMON one hour after 1 Gy ionizing radiation, lysates 3 and 7 days, FIG. 2A, listed as combination of sequences 1, 2 and 3): most effective at inhibiting MGMT expression | Time of exposure to AMON after radiation that gave the best inhibition (MGMT [2]; T98G cells, tested 2 h and 1 h before, 1 and 24 h after radiation): 24 h | Inhibition of MGMT expression (Western blot) (MGMT [2]; T98G cells, treated before or after exposure to 1 Gy radiation, FIG. 2B): inhibition of MGMT | Susceptibility of cells to temozolamide (phosphorylated-p53, caspase 3) (T98G cells): susceptible to temozolomide | Susceptibility of cells to temozolamide (phosphorylated-p53, caspase 3) (T98G cells; listed as morpholino oligonucleotides of SEQ ID NO: 1, SEQ ID NO: 2, and SEQ ID NO: 3): enhanced cytotoxic effects of temozolamide | Inhibition of MGMT expression in tumors (Western blot) (MGMT [3]; H460 subcutaneous control tumors, systemic AMON but no radiation): not seen | Inhibition of MGMT expression in tumors (Western blot) (MGMT [3]; H460 subcutaneous tumors, 5 Gy to tumor 24 hours before iv AMON, harvested 3 days after): inhibition of MGMT expression was achieved | Inhibition of MGMT expression in tumors (Western blot) (MGMT [3]; H460 subcutaneous tumors, 5 Gy to tumor 24 hours before iv AMON, harvested 3 days after, listed as combination of morpholino oligonucleotides of SEQ ID NO: 1, SEQ ID NO: 2, and SE): inhibition of MGMT expression | Changes in MGMT-gene methylation status (MGMT gene): No significant changes
